One data set addresses T1, Esc2 200-456 (Saccharomyces cerevisiae, UniProt Q06340 200-456).
T1 sequence: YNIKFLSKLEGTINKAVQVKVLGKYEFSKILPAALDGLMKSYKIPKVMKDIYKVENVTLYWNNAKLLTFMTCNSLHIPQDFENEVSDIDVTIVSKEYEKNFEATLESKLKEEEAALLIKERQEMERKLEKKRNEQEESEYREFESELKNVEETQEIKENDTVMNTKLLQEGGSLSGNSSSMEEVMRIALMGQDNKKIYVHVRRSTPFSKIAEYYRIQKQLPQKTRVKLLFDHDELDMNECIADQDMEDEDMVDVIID
Briefly: EMSA; up to 1000 nM protein; EMSA, 7 nM fluorescein-labeled DNA, 10 min at 37 C; buffer, salt and pH not given in the material. The following applies: protein: recombinant; tags: expressed as GST fusion; tag status in assay not explicit; label: 5'-fluorescein on strand 1; fork 1:3 1:4 2:4; three duplex arms.

The next data set has as its target T2, Esc2 (Saccharomyces cerevisiae, UniProt Q06340 1-456).
T2 sequence: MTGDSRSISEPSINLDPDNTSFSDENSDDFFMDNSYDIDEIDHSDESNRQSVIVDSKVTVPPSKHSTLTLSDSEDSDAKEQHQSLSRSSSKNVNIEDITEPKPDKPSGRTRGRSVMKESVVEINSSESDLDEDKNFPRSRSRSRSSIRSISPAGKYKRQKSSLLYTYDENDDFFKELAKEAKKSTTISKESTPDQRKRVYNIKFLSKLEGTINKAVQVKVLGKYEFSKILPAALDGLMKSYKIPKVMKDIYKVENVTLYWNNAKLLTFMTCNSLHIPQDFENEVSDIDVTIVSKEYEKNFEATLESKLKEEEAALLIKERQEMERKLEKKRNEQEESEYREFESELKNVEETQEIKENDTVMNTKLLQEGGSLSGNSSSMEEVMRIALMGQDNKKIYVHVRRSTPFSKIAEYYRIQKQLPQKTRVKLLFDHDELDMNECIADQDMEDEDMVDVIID
The data set is described as follows: EMSA; strong preference; 7 nM DNA; EMSA, 7 nM fluorescein-labeled DNA, 10 min at 37 C; buffer, salt and pH not given in the material. The following applies: protein: recombinant, tags: GST tag removed, label: 5'-fluorescein on strand 1. A general note: Mobility shift assays separate free from complexed probe on a gel.

For a further data set, the target named is T3, Esc2 FF173,174AA (Saccharomyces cerevisiae, UniProt Q06340 1-456, F173A;F174A).
T3 sequence: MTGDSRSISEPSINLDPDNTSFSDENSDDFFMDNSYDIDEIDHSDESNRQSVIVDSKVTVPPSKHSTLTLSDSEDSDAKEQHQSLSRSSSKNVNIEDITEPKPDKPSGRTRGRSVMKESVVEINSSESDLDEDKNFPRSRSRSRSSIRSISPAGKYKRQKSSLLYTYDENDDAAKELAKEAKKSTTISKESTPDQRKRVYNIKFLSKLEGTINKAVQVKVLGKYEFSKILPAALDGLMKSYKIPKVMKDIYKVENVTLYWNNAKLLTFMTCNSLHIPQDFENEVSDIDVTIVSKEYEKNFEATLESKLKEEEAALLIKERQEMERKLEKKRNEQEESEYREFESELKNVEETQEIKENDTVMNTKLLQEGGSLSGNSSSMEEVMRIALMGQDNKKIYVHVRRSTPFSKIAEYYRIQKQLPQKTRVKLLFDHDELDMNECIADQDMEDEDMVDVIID
Briefly: EMSA; still proficient, degree only in figure; EMSA, 7 nM fluorescein-labeled DNA, 10 min at 37 C; buffer, salt and pH not given in the material. The following applies: protein: recombinant; tags: expressed as GST fusion; tag status in assay not explicit; label: 5'-fluorescein on strand 1; fork 1:3 1:4 2:4; three duplex arms.

Another data set deals with T4, Esc2 1-151 (Saccharomyces cerevisiae, UniProt Q06340 1-151).
T4 sequence: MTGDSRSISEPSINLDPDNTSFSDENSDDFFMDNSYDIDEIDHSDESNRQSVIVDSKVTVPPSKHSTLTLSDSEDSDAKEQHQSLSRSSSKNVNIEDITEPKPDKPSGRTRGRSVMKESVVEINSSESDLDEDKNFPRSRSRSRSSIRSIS
The data set is described as follows: EMSA; binding completely lost; up to 1000 nM protein; EMSA, 7 nM fluorescein-labeled DNA, 10 min at 37 C; buffer, salt and pH not given in the material. The following applies: protein: recombinant; tags: expressed as GST fusion; tag status in assay not explicit; label: 5'-fluorescein on strand 1; fork 1:3 1:4 2:4; three duplex arms.

Another data set addresses T5, Esc2 1-199 (Saccharomyces cerevisiae, UniProt Q06340 1-199).
T5 sequence: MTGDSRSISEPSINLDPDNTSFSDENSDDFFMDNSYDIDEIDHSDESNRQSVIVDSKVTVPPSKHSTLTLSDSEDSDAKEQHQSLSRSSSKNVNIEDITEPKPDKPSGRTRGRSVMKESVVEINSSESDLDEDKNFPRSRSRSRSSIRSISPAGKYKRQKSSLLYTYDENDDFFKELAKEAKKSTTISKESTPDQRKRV
Briefly: EMSA; highly proficient; 7 nM DNA, 0-1000 nM protein; EMSA, 7 nM fluorescein-labeled DNA, 10 min at 37 C; buffer, salt and pH not given in the material. The following applies: protein: recombinant; tags: expressed as GST fusion; tag status in assay not explicit; label: 5'-fluorescein on strand 1; fork 1:3 1:4 2:4; three duplex arms.

B1: Fork (oligos 18, 20, 21, 22) (structured_DNA)
DNA 1: AGCTACCATGCCTGCACGAATTAAGCAATTCGTAATCATGGTCATAGCT
DNA 2: CTACAGTTCGTCAGGATTCC
DNA 3: AATTCGTGCAGGCATGGTAGCT
DNA 4: AGCTATGACCATGATTACGAATTGCTTGGAATCCTGACGAACTGTAG
For B1, the binding result is listed as “no binding” with Esc2 200-456; “binds” in the data set with Esc2 (fork 1:3 1:4 2:4, three duplex arms); “binds” with Esc2 FF173,174AA; “no binding” in the data set with Esc2 1-151; “binds” with Esc2 1-199.

B2: 3'-Flap (oligos 18, 21, 22) (structured_DNA)
DNA 1: AGCTACCATGCCTGCACGAATTAAGCAATTCGTAATCATGGTCATAGCT
DNA 2: AATTCGTGCAGGCATGGTAGCT
DNA 3: AGCTATGACCATGATTACGAATTGCTTGGAATCCTGACGAACTGTAG
Consider B2, for which the binding result in the data set with Esc2 (3' flap 1:2 1:3, 20 nt ss 3' flap on strand 3) was “binds”.

Values taken from article PMC4604347, “Local regulation of the Srs2 helicase by the SUMO-like domain protein Esc2 promotes recombination at sites of stalled replication”.
